For experiment [1], the target named is IgG-Fab prepared from anti-TNFα monoclonal antibody (Remicade). Nature of the experiment: SPR Biacore, Fab immobilized at about 10000 RU, response 1 minute after addition. (SPR reads the build-up and loss of mass on a sensor chip optically.)
Experiment [2] concerns the target IgG-Fc of anti-TNFα monoclonal antibody (Remicade). Nature of the experiment: SPR Biacore, Fc immobilized at about 10000 RU, response 1 minute after addition.

As to “peptide having the amino acid sequence of β1 domain of Protein G (SEQ ID NO: 32) (from UniProt P06654 228-282)”, the inclination of approximate curve (binding response against peptide concentration) in experiment [1] was 0.1; in experiment [2], 0.9.

The record behind these values is patent US20180044401A1.
